The assay addresses aPKCι kinase domain (residues 248–596), fully primed (human), P41743. The assay can be described thus: fluorescence polarisation; fluorescence anisotropy; Llgl1 P-site peptide and aPKCι kinase domain (2P, pT412 and pT564); apparent Kd. On the technique in general: Polarisation of emitted light reports the rotation of a fluorescent probe.

Sequence of aPKCι kinase domain (residues 248–596), fully primed (human), P41743 (P41743 248-596): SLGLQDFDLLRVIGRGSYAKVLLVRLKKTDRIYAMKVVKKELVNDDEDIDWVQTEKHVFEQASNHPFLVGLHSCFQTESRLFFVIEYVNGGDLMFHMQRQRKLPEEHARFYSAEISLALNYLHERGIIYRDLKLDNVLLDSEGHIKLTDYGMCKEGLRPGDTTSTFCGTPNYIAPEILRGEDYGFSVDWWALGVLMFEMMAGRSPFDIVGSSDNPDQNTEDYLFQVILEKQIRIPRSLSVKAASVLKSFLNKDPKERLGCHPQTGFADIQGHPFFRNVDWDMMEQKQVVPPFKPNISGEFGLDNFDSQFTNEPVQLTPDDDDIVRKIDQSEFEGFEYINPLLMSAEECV

As to LAMEGPLSRVKSLKKSLRQSFRRIRKSRV (modifications not checked) [Llgl1 P-site peptide], the Kd is 48 nM.

The values above are taken from publication PMC11996676.
